Laboratory results reported in US5849890.

Target: human chorionic gonadotropin (hCG) heterodimer (Homo sapiens) (UniProt P01215+P0DN86)
Experiment: filter
Details: 2'-F all pyrimidines (RNA transcript of template)

Sequence of human chorionic gonadotropin (hCG) heterodimer (Homo sapiens) (P01215 25-116, chain 1 of 2, other chains not shown): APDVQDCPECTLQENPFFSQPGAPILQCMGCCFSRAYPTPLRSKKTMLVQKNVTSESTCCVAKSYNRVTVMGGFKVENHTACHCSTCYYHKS

| Sequence | Kd (estimate, <1% bound at up to 80 uM) [µM] | binding (up to 40 uM hCG) [% bound] |
| --- | --- | --- |
| GGGAGACAAGAAUAAACGCUCAANNNNNNNNNNNNNNNNNNNNNNNNNNNNNNNNNNNNNNNNUUCGACAGGAGGCUCACAACAGGC [2'-F random 40N8 pool] | > 800 | – |
| GGGAGGACGAUGCGGNNNNNNNNNNNNNUUGAACGAUCCUUNNNNNNNNNNNNNCAGACGACUCGCCCGA [CG2N7 unselected pool] | – | < 1 |
